What was measured:
[1] = test system: HEK293A cells; experiment: Whole-animal imaging of sensor-expressing live cell suspensions injected subcutaneously in mice; assay type: in vivo; conditions: 10^6 live cells subcutaneous, unshaved adult FVB mice, n=6
Method: (§1) Animal Imaging System. All animal procedures were performed in strict accordance with recommendations provided in the National Institutes of Health (NIH) Guide for the Care and Use of Laboratory Animals, according to protocols approved by the Purdue Animal Care and Use Committee and the Purdue University Laboratory Animal Program to minimize pain and suffering. Male and female adult Balb/c and FVB mice were sacrificed and then injected with protein solution or live cells subcutaneously in the hind limb area. NanoLuc substrate, either 20 μM coelenterazine-h or 0.5× Promega Nano-Glo furimazine solution, was mixed with the sample just prior to injection. Protein, cells, and animals were imaged at ambient temperature. […] Therefore, in this study we used the SI Ami HT equipped with a 510/20 nm and 650/20 nm emission filters for all subsequent experiments.
For imaging of purified protein in mice, mScarlet-ε-NanoLuc protein pre-equilibrated with 0 mM or 10 mM ATP was mixed with 20 μM coelenterazine-h. […]
We next carried out ratiometric imaging of live cells injected in whole animals. […] The total luminescence intensity provides an indicator of the total protein expression level, and critically we observed that the BRET ratio was dependent on the metabolic condition only and was independent of the level of luminescence intensity (FIG. 5).

[2] = test system: HEK293A cells; experiment: Bioluminescence imaging of adherent sensor-expressing cells in Spectral Ami, glucose vs metabolic inhibitors; assay type: cell-based; conditions: for mScarlet-ε-NanoLuc ratio signal: n=6
Method: HEK293A cells were transfected with plasmids carrying mScarlet-ε-NanoLuc by calcium phosphate method. One day after transfection, cells were passaged onto a 96-well plate at different cell densities from 1,250 to 20,000 cells per well. After an additional 24-48 hours, imaging was performed using a spectral Ami with 510/20 nm and 650/20 nm filters (5 sec exposure time, binning 2×2, FOV 25 cm, f-stop 1.2) immediately after the addition of 20 μM coelenterazine-h.
We first validated that we could measure differences in energy metabolism using adherent cell cultures. HEK293A cells expressing mScarlet-ε-NanoLuc were seeded at different densities, from 62,500 cells/cm^2 down to 4,000 cell/cm^2 to determine the sensitivity of detection in the Spectral Ami system. […] Thus, the sensor effectively detects metabolic differences in live cells in a dish within the animal imager.

[3] = test system: HEK293A cells; experiment: Live single-cell BRET microscopy with metabolic inhibition; assay type: cell-based; conditions: metabolic inhibition with 10 mM 2DG and 2.5 μM oligomycin A, ambient temperature
Method: Live single-cell microscopy. The sensor genes were sub-cloned into the GW1 mammalian expression vector, and HEK293A cells were transfected by the calcium phosphate method. Cells were imaged with 30 second exposure times and 2 minute imaging interval on an Olympus IX83 microscope with a 40× 1.35 NA Apo oil objective, an Andor Xyla 4.2 sCMOS camera at 2-by-2 pixel binning, and 470/24 nm and 632/60 nm emission filters. Just prior to the addition of furimazine, well volume was exchanged twice with imaging media without glucose. After adding furimazine, a three point baseline was acquired. […] Cells were imaged for ˜30 minutes until luminescence decayed to background. Image backgrounds were subtracted before calculating the ratio images of the luminescence channels using ImageJ. […]
After removing the plate from the incubator, cell growth media was exchanged for imaging media (15 mM HEPES, 120 mM NaCl, 3 mM KCl, 3 mM NaHCO3, 1.25 mM NaH2PO4, 10 mM glucose, 2 mM CaCl2, 1 mM MgCl2). Imaging regions were determined using mScarlet fluorescence and DIC. […] Cells were imaged until luminescence decayed to background (20-30 minutes). Image backgrounds were subtracted (rolling ball radus 100 pixels) before calculating the ratio images of the luminescence channels using ImageJ. […] For FIG. 3, binary masks were generated using channel luminescence to remove pixels in ratio image corresponding to background. […]

[4] = Whole-animal imaging of purified sensor protein placed subcutaneously in mice; assay type: in vivo, Balb/c mice; conditions: 10 mM vs 0 mM ATP, subcutaneous hindlimb, unshaved mice, n=3
Method: as §1
For imaging of purified protein in mice, mScarlet-ε-NanoLuc protein pre-equilibrated with 0 mM or 10 mM ATP was mixed with 20 μM coelenterazine-h. The reaction mixture was enclosed in a custom plastic tube and placed subcutaneously in the left (0 mM ATP) and right (10 mM ATP) hindlimb areas of adult Balb/c mice carcass. The sequential imaging was immediately performed using a spectral Ami with 510/20 and 650/20 nm filters (30 sec exposure time, binning 2×2, FOV 25, f-stop 1.2). […]

[5] = Ratiometric BRET imaging of purified mScarlet-ε-NanoLuc protein on SI Ami HT whole-animal imaging system; assay type: binding; conditions: protein solutions
From the text: (§2) Protein Engineering and Library Screen. Sensors were constructed by Gibson Assembly using the NEB HiFi kit, sub-cloned into the pRSETB vector for expression as His-tagged protein in BL21(DE3) E. coli, and purified by nickel-affinity chromatography. CeNL/pcDNA3 was a gift from Takeharu Nagai (Addgene plasmid #85199), pcDNA3-mNeonGreen was a gift from Richard Day (Indiana University), pCytERm-mScarlet_N1 was a gift from Dorus Gadella (Addgene plasmid #85066), and pBad-HisB-RRvT (Addgene plasmid #87364) and pBad-HisB-GRvT (Addgene plasmid #87363) were gifts from Robert Campbell. The fluorescence and luminescence ATP dose-response curves for purified protein solutions were measured on a BioTek Synergy H4 multi-mode microplate reader at ambient temperature. Luminescence was also measured using a Spectral Instruments Ami HT. […]
(§3) The fluorescence and luminescence of purified sensor proteins were investigated in assay buffer (50 mM MOPS-KOH, 50 mM KCl, 0.5 mM MgCl2, and 0.05% Triton X-100, pH 7.3) in a 96-well plate using a BioTek Synergy H4 multi-mode microplate reader at ambient temperature. […] Luminescence spectra were scanned from 400 to 650 nm. Emissions of NanoLuc and mScarlet were measured using 450/50 and 620/15 nm emission filters, respectively, and the BRET efficiency was obtained by calculating the emission ratio of mScarlet/NanoLuc. […]

[6] = Library screen: FRET and BRET dynamic range of purified sensors after addition of saturating ATP; assay type: binding
From the text: as §2, §3

[7] = ATP dose-response of purified mScarlet-ε-NanoLuc, luminescence BRET ratio on microplate reader; assay type: binding; conditions: purified protein; for BRET ratio: n=3
From the text: Protein Engineering and Library Screen. Sensors were constructed by Gibson Assembly using the NEB HiFi kit, sub-cloned into the pRSETB vector for expression as His-tagged protein in BL21(DE3) E. coli, and purified by nickel-affinity chromatography. CeNL/pcDNA3 was a gift from Takeharu Nagai (Addgene plasmid #85199), pcDNA3-mNeonGreen was a gift from Richard Day (Indiana University), pCytERm-mScarlet_N1 was a gift from Dorus Gadella (Addgene plasmid #85066), and pBad-HisB-RRvT (Addgene plasmid #87364) and pBad-HisB-GRvT (Addgene plasmid #87363) were gifts from Robert Campbell. The fluorescence and luminescence ATP dose-response curves for purified protein solutions were measured on a BioTek Synergy H4 multi-mode microplate reader at ambient temperature. Luminescence was also measured using a Spectral Instruments Ami HT. Plasmids generated in this study are distributed via Addgene.
The fluorescence and luminescence of purified sensor proteins were investigated in assay buffer (50 mM MOPS-KOH, 50 mM KCl, 0.5 mM MgCl2, and 0.05% Triton X-100, pH 7.3) in a 96-well plate using a BioTek Synergy H4 multi-mode microplate reader at ambient temperature. For FRET library screening, 420/50 and 485/20 nm excitation filters and 485/20, 528/20, and 620/15 nm emission filters were used. For BRET screening, 20 μM coelenterazine-h was used as a substrate of NanoLuc and 450/50, 485/20, 528/20, and 620/15 nm emission filters were used. For characterization of mScarlet-ε-NanoLuc, 20 μM coelenterazine-h was applied to a reaction solution containing the purified sensor protein and 0-10 mM ATP in assay buffer. Luminescence spectra were scanned from 400 to 650 nm. Emissions of NanoLuc and mScarlet were measured using 450/50 and 620/15 nm emission filters, respectively, and the BRET efficiency was obtained by calculating the emission ratio of mScarlet/NanoLuc. Luminescence was also measured using a Spectral Instruments Ami HT with 510/20 and 650/20 nm emission filters (binning 2×2, FOV 25 cm, f-stop 1.2). Purified mScarlet-ε-NanoLuc protein in assay buffer with 0-10 mM ATP was imaged with a 1 sec exposure time after the addition of 20 μM coelenterazine-h. For measurements at different concentrations (1-100 nM) of mScarlet-ε-NanoLuc protein, the purified protein was mixed with 10 mM ATP or 0 mM ATP and imaged after the addition of 20 μM coelenterazine-h with a 5 sec exposure time for a total 30 min. Regions of interest were drawn over each well for all filter sets, and the average radiance was determined.

B1: mScarlet-ε-NanoLuc: BRET-only ATP sensor: mScarlet (N-terminus), B. subtilis ε subunit, NanoLuc (C-terminus); SEQ ID NO:1 (protein)
chain: MVSKGEAVIKEFMRFKVHMEGSMNGHEFEIEGEGEGRPYEGTQTAKLKVTKGGPLPFSWDILSPQFMYGSRAFTKHPADIPDYYKQSFPEGFKWERVMNFEDGGAVTVTQDTSLEDGTLIYKVKLRGTNFPPDGPVMQKKTMGWEASTERLYPEDGVLKGDIKMALRLKDGGRYLADFKTTYKAKKPVQMPGAYNVDRKLDITSHNEDYTVVEQYERSEGRHSTGRHIDMKTVKVNITTPDGPVYDADIEMVSVRAESGDLGILPGHIPTKAPLKIGAVRLKKDGQTEMVAVSGGTVEVRPDHVTINAQAAETAEGIDKERAEAARQRAQERLNSQSDDTDIRRAELALQRALNRLDVAGKANEFMLEDFVGDWRQTAGYNLDQVLEQGGVSSLFQNLGVSVTPIQRIVLSGENGLKIDIHVIIPYEGLSGDQMGQIEKIFKVVYPVDDHHFKVILHYGTLVIDGVTPNMIDYFGRPYEGIAVFDGKKITVTGTLWNGNKIIDERLINPDGSLLFRVTINGVTGWRLCERILA
modifications: mScarlet-e-NanoLuc
- ratio difference between glucose and inhibitor-treated cells through tissue and fur, compared with cell suspensions in a dish [1]: same ratio difference
- difference in ratio signal, glucose vs metabolic inhibitors [2]: ~3 fold
- mScarlet-ε-NanoLuc ratio signal ([2]; addition of glucose): 0.29±0.04
- mScarlet-ε-NanoLuc ratio signal ([2]; metabolic inhibitors 2DG and oligomycin A): 0.11±0.01
- change in the absolute BRET ratio [3]: −71%
- difference in the ratio with vs without ATP imaged through tissue and fur [4]: greater than 3 fold
- dynamic range in ATP dose response [5]: 5 fold
- Fold-Change in Ratio BRET ([6]; after addition of saturating ATP, purified protein, 20 μM coelenterazine-h): 5.12 ± 0.18
- change in the BRET ratio upon saturation with ATP ([6]; purified sensor, zero to saturating ATP): 5 fold
- BRET ratio ([7]; 0 mM ATP): 0.0063±0.0001
- BRET ratio ([7]; 10 mM ATP): 0.0324±0.009
- BRET ratio stability over time during luminescence intensity decay [7]: stable over time
- maximal change in BRET ratio upon ATP saturation [7]: greater than 4 fold

— patent publication US20200400655A1, “RATIOMETRIC BRET MEASUREMENTS OF ATP WITH A GENETICALLY-ENCODED LUMINESCENT SENSOR” (Purdue Research Foundation, priority 2019, published 2020)
